We go through five molecules from US20070243583A1 (University of Texas, published 2007).

The chains are these.
T1: RNase A (UniProt P61823 27-150)
T1 sequence (looked up): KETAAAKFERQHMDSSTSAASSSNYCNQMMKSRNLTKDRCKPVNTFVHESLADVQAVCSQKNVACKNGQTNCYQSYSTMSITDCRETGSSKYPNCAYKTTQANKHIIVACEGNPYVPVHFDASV

B1: DsbC (enzyme, Escherichia coli, UniProt P0AEG6 21-236, looked up)
chain: DDAAIQQTLAKMGIKSSDIQPAPVAGMKTVLTNSGVLYITDDGKHIIQGPMYDVSGTAPVNVTNKMLLKQLNALEKEMIVYKAPQEKHVITVFTDITCGYCHKLHEQMADYNALGITVRYLAFPRQGLDSDAEKEMKAIWCAKDKNKAFDDVMAGKSVAPASCDVDIADHYALGVQLGVSGTPAVVLSNGTLVPGYQPPKEMKEFLDEHQKMTSGK
notes: also called wild-type DsbC
B2: FkpA-DsbA2 (protein)
chain: AEAAKPATAADSKAAFKNDDQKSAYALGASLGRYMENSLKEQEKLGIKLDKDQLIAGVQDAFADKSKLSDQEIEQTLQAFEARVKSSAQAKMEKDAADNEAKGKEYREKFAKEKQYEDGKQYTTLEKPVAGAPQVLEFFSFFCPHCYQFEEVLHISDNVKKKLPEGVKMTKYHVNFMGGDLGKDLTQAWAVAMALGVEDKVTVPLFEGVQKTQTIRSASDIRDVFINAGIKGEEYDAAWNSFVVKSLVAQQEKAAADVQLRGVPAMFVNGKYQLNPQGMDTSNMDVFVQQYADTVKYLSEKKHHHHHH
B3: FkpA-DsbA4 (protein)
chain: AEAAKPATAADSKAAFKNDDQKSAYALGASLGRYMENSLKEQEKLGIKLDKDQLIAGVQDAFADKSKLSDQEIEQTLQAFEARVKSSAQAKMEKDAADNEAKGKEYREKFAKEKEDGKQYTTLEKPVAGAPQVLEFFSFFCPHCYQFEEVLHISDNVKKKLPEGVKMTKYHVNFMGGDLGKDLTQAWAVAMALGVEDKVTVPLFEGVQKTQTIRSASDIRDVFINAGIKGEEYDAAWNSFVVKSLVAQQEKAAADVQLRGVPAMFVNGKYQLNPQGMDTSNMDVFVQQYADTVKYLSEKKHHHHHH
B4: FkpA-DsbA5 (protein)
chain: AEAAKPATAADSKAAFKNDDQKSAYALGASLGRYMENSLKEQEKLGIKLDKDQLIAGVQDAFADKSKLSDQEIEQTLQAFEARVKSSAQAKMEKDAADNEAKGKEYREKFAKEKDGKQYTTLEKPVAGAPQVLEFFSFFCPHCYQFEEVLHISDNVKKKLPEGVKMTKYHVNFMGGDLGKDLTQAWAVAMALGVEDKVTVPLFEGVQKTQTIRSASDIRDVFINAGIKGEEYDAAWNSFVVKSLVAQQEKAAADVQLRGVPAMFVNGKYQLNPQGMDTSNMDVFVQQYADTVKYLSEKKHHHHHH
B5: FkpA-DsbA3 (protein)
chain: AEAAKPATAADSKAAFKNDDQKSAYALGASLGRYMENSLKEQEKLGIKLDKDQLIAGVQDAFADKSKLSDQEIEQTLQAFEARVKSSAQAKMEKDAADNEAKGKEYREKFAKEKYEDGKQYTTLEKPVAGAPQVLEFFSFFCPHCYQFEEVLHISDNVKKKLPEGVKMTKYHVNFMGGDLGKDLTQAWAVAMALGVEDKVTVPLFEGVQKTQTIRSASDIRDVFINAGIKGEEYDAAWNSFVVKSLVAQQEKAAADVQLRGVPAMFVNGKYQLNPQGMDTSNMDVFVQQYADTVKYLSEKKHHHHHH

The first data set has as its target insulin.
Test: not given
As to B1, the Insulin Reduction (*10^3 DA650 nm/min^-2) was 5.81.

As to B2, the Insulin Reduction (*10^3 DA650 nm/min^-2) amounted to 0.45.

As to B3, the Insulin Reduction (*10^3 DA650 nm/min^-2) stood at 0.55.

As to B4, the Insulin Reduction (*10^3 DA650 nm/min^-2) turned out to be 0.38.

As for B5, the Insulin Reduction (*10^3 DA650 nm/min^-2) worked out at 0.43.

In a further data set the target is citrate synthase.
Test: not given
Take B1: the Citrate Synthase Inactivation, CS t1/2 was 3.15 min and the Citrate Synthase Inactivation, µ was 0.22 min - 1.

For B2, the Citrate Synthase Inactivation, CS t1/2 worked out at 2.46 min and the Citrate Synthase Inactivation, µ is 0.17 min - 1.

Consider B3, for which the Citrate Synthase Inactivation, CS t1/2 worked out at 3.82 min and the Citrate Synthase Inactivation, µ is 0.45 min - 1.

B4 displayed a Citrate Synthase Inactivation, CS t1/2 of 2.71 min and a Citrate Synthase Inactivation, µ of 0.26 min - 1.

In turn, B5 displayed a Citrate Synthase Inactivation, CS t1/2 of 2.01 min and a Citrate Synthase Inactivation, µ of 0.36 min - 1.

The target of the next data set is T1, RNase A. Put plainly: cell-based or functional assay.
For B1, the “RNAse Refolding” value came out at 0.067 µM/min/µM Enzyme.

The next data set concerns the molecule itself. In words: gel filtration FPLC of the purified protein (self-association, homodimer).
As for B1, the binding result is listed as “binds”.
